Data taken from US9284543B2, “Neutral active soluble truncated PH20 polypeptides and uses thereof” (Halozyme, Inc., priority 2008, dated 2016).

B1: SPAM1-DAVD: C-terminally truncated human PH20, precursor 456 aa (SEQ ID NO:40), mature 421 aa (SEQ ID NO:92) (protein, listed as Homo sapiens)
chain 1: MGVLKFKHIFFRSFVKSSGVSQIVFTFLLIPCCLTLNFRAPPVIPNVPFLWAWNAPSEFCLGKFDEPLDMSLFSFIGSPRINATGQGVTIFYVDRLGYYPYIDSITGVTVNGGIPQKISLQDHLDKAKKDITFYMPVDNLGMAVIDWEEWRPTWARNWKPKDVYKNRSIELVQQQNVQLSLTEATEKAKQEFEKAGKDFLVETIKLGKLLRPNHLWGYYLFPDCYNHHYKKPGYNGSCFNVEIKRNDDLSWLWNESTALYPSIYLNTQQSPVAATLYVRNRVREAIRVSKIPDAKSPLPVFAYTRIVFTDQVLKFLSQDELVYTFGETVALGASGIVIWGTLSIMRSMKSCLLLDNYMETILNPYIINVTLAAKMCSQVLCQEQGVCIRKNWNSSDYLHLNPDNFAIQLEKGGKFTVRGKPTLEDLEQFSEKFYCSCYSTLSCKEKADVKDTDAVD
chain 2: LNFRAPPVIPNVPFLWAWNAPSEFCLGKFDEPLDMSLFSFIGSPRINATGQGVTIFYVDRLGYYPYIDSITGVTVNGGIPQKISLQDHLDKAKKDITFYMPVDNLGMAVIDWEEWRPTWARNWKPKDVYKNRSIELVQQQNVQLSLTEATEKAKQEFEKAGKDFLVETIKLGKLLRPNHLWGYYLFPDCYNHHYKKPGYNGSCFNVEIKRNDDLSWLWNESTALYPSIYLNTQQSPVAATLYVRNRVREAIRVSKIPDAKSPLPVFAYTRIVFTDQVLKFLSQDELVYTFGETVALGASGIVIWGTLSIMRSMKSCLLLDNYMETILNPYIINVTLAAKMCSQVLCQEQGVCIRKNWNSSDYLHLNPDNFAIQLEKGGKFTVRGKPTLEDLEQFSEKFYCSCYSTLSCKEKADVKDTDAVD
modifications: HuPH20 precursor 1-456; Mature HuPH20 36-456
B2: SPAM1-DTDA: C-terminally truncated human PH20, precursor 454 aa (SEQ ID NO:41), mature 419 aa (SEQ ID NO:93) (protein, listed as Homo sapiens)
chain 1: MGVLKFKHIFFRSFVKSSGVSQIVFTFLLIPCCLTLNFRAPPVIPNVPFLWAWNAPSEFCLGKFDEPLDMSLFSFIGSPRINATGQGVTIFYVDRLGYYPYIDSITGVTVNGGIPQKISLQDHLDKAKKDITFYMPVDNLGMAVIDWEEWRPTWARNWKPKDVYKNRSIELVQQQNVQLSLTEATEKAKQEFEKAGKDFLVETIKLGKLLRPNHLWGYYLFPDCYNHHYKKPGYNGSCFNVEIKRNDDLSWLWNESTALYPSIYLNTQQSPVAATLYVRNRVREAIRVSKIPDAKSPLPVFAYTRIVFTDQVLKFLSQDELVYTFGETVALGASGIVIWGTLSIMRSMKSCLLLDNYMETILNPYIINVTLAAKMCSQVLCQEQGVCIRKNWNSSDYLHLNPDNFAIQLEKGGKFTVRGKPTLEDLEQFSEKFYCSCYSTLSCKEKADVKDTDA
chain 2: LNFRAPPVIPNVPFLWAWNAPSEFCLGKFDEPLDMSLFSFIGSPRINATGQGVTIFYVDRLGYYPYIDSITGVTVNGGIPQKISLQDHLDKAKKDITFYMPVDNLGMAVIDWEEWRPTWARNWKPKDVYKNRSIELVQQQNVQLSLTEATEKAKQEFEKAGKDFLVETIKLGKLLRPNHLWGYYLFPDCYNHHYKKPGYNGSCFNVEIKRNDDLSWLWNESTALYPSIYLNTQQSPVAATLYVRNRVREAIRVSKIPDAKSPLPVFAYTRIVFTDQVLKFLSQDELVYTFGETVALGASGIVIWGTLSIMRSMKSCLLLDNYMETILNPYIINVTLAAKMCSQVLCQEQGVCIRKNWNSSDYLHLNPDNFAIQLEKGGKFTVRGKPTLEDLEQFSEKFYCSCYSTLSCKEKADVKDTDA
modifications: HuPH20 precursor 1-454; Mature HuPH20 36-454
B3: SPAM1-VKDT: C-terminally truncated human PH20, precursor 452 aa (SEQ ID NO:42), mature 417 aa (SEQ ID NO:94) (protein, listed as Homo sapiens)
chain 1: MGVLKFKHIFFRSFVKSSGVSQIVFTFLLIPCCLTLNFRAPPVIPNVPFLWAWNAPSEFCLGKFDEPLDMSLFSFIGSPRINATGQGVTIFYVDRLGYYPYIDSITGVTVNGGIPQKISLQDHLDKAKKDITFYMPVDNLGMAVIDWEEWRPTWARNWKPKDVYKNRSIELVQQQNVQLSLTEATEKAKQEFEKAGKDFLVETIKLGKLLRPNHLWGYYLFPDCYNHHYKKPGYNGSCFNVEIKRNDDLSWLWNESTALYPSIYLNTQQSPVAATLYVRNRVREAIRVSKIPDAKSPLPVFAYTRIVFTDQVLKFLSQDELVYTFGETVALGASGIVIWGTLSIMRSMKSCLLLDNYMETILNPYIINVTLAAKMCSQVLCQEQGVCIRKNWNSSDYLHLNPDNFAIQLEKGGKFTVRGKPTLEDLEQFSEKFYCSCYSTLSCKEKADVKDT
chain 2: LNFRAPPVIPNVPFLWAWNAPSEFCLGKFDEPLDMSLFSFIGSPRINATGQGVTIFYVDRLGYYPYIDSITGVTVNGGIPQKISLQDHLDKAKKDITFYMPVDNLGMAVIDWEEWRPTWARNWKPKDVYKNRSIELVQQQNVQLSLTEATEKAKQEFEKAGKDFLVETIKLGKLLRPNHLWGYYLFPDCYNHHYKKPGYNGSCFNVEIKRNDDLSWLWNESTALYPSIYLNTQQSPVAATLYVRNRVREAIRVSKIPDAKSPLPVFAYTRIVFTDQVLKFLSQDELVYTFGETVALGASGIVIWGTLSIMRSMKSCLLLDNYMETILNPYIINVTLAAKMCSQVLCQEQGVCIRKNWNSSDYLHLNPDNFAIQLEKGGKFTVRGKPTLEDLEQFSEKFYCSCYSTLSCKEKADVKDT
modifications: HuPH20 precursor 1-452; Mature HuPH20 36-452
B4: SPAM1-ADVK: C-terminally truncated human PH20, precursor 450 aa (SEQ ID NO:43), mature 415 aa (SEQ ID NO:95) (protein, listed as Homo sapiens)
chain: MGVLKFKHIFFRSFVKSSGVSQIVFTFLLIPCCLTLNFRAPPVIPNVPFLWAWNAPSEFCLGKFDEPLDMSLFSFIGSPRINATGQGVTIFYVDRLGYYPYIDSITGVTVNGGIPQKISLQDHLDKAKKDITFYMPVDNLGMAVIDWEEWRPTWARNWKPKDVYKNRSIELVQQQNVQLSLTEATEKAKQEFEKAGKDFLVETIKLGKLLRPNHLWGYYLFPDCYNHHYKKPGYNGSCFNVEIKRNDDLSWLWNESTALYPSIYLNTQQSPVAATLYVRNRVREAIRVSKIPDAKSPLPVFAYTRIVFTDQVLKFLSQDELVYTFGETVALGASGIVIWGTLSIMRSMKSCLLLDNYMETILNPYIINVTLAAKMCSQVLCQEQGVCIRKNWNSSDYLHLNPDNFAIQLEKGGKFTVRGKPTLEDLEQFSEKFYCSCYSTLSCKEKADVK
modifications: HuPH20 precursor 1-450
B5: SPAM1-ASPS: C-terminally truncated human PH20, precursor 487 aa (SEQ ID NO:14), mature 452 aa (SEQ ID NO:66) (protein, listed as Homo sapiens)
chain: MGVLKFKHIFFRSFVKSSGVSQIVFTFLLIPCCLTLNFRAPPVIPNVPFLWAWNAPSEFCLGKFDEPLDMSLFSFIGSPRINATGQGVTIFYVDRLGYYPYIDSITGVTVNGGIPQKISLQDHLDKAKKDITFYMPVDNLGMAVIDWEEWRPTWARNWKPKDVYKNRSIELVQQQNVQLSLTEATEKAKQEFEKAGKDFLVETIKLGKLLRPNHLWGYYLFPDCYNHHYKKPGYNGSCFNVEIKRNDDLSWLWNESTALYPSIYLNTQQSPVAATLYVRNRVREAIRVSKIPDAKSPLPVFAYTRIVFTDQVLKFLSQDELVYTFGETVALGASGIVIWGTLSIMRSMKSCLLLDNYMETILNPYIINVTLAAKMCSQVLCQEQGVCIRKNWNSSDYLHLNPDNFAIQLEKGGKFTVRGKPTLEDLEQFSEKFYCSCYSTLSCKEKADVKDTDAVDVCIADGVCIDAFLKPPMETEEPQIFYNASPS
modifications: HuPH20 precursor 1-487
B6: SPAM1-YNAS: C-terminally truncated human PH20, precursor 485 aa (SEQ ID NO:15), mature 450 aa (SEQ ID NO:67) (protein, listed as Homo sapiens)
chain: LNFRAPPVIPNVPFLWAWNAPSEFCLGKFDEPLDMSLFSFIGSPRINATGQGVTIFYVDRLGYYPYIDSITGVTVNGGIPQKISLQDHLDKAKKDITFYMPVDNLGMAVIDWEEWRPTWARNWKPKDVYKNRSIELVQQQNVQLSLTEATEKAKQEFEKAGKDFLVETIKLGKLLRPNHLWGYYLFPDCYNHHYKKPGYNGSCFNVEIKRNDDLSWLWNESTALYPSIYLNTQQSPVAATLYVRNRVREAIRVSKIPDAKSPLPVFAYTRIVFTDQVLKFLSQDELVYTFGETVALGASGIVIWGTLSIMRSMKSCLLLDNYMETILNPYIINVTLAAKMCSQVLCQEQGVCIRKNWNSSDYLHLNPDNFAIQLEKGGKFTVRGKPTLEDLEQFSEKFYCSCYSTLSCKEKADVKDTDAVDVCIADGVCIDAFLKPPMETEEPQIFYNAS
modifications: mature HuPH20 36-485

Assays:
CHO-S cells = test: Western blot analysis of PH20 expression in media and cells after transient expression; format: cell-based, Chinese Hamster; details: media versus cells
Outline: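 CHO-S cells were transiently transfected with mutant PH20-HZ24 plasmids using GeneJuice and expressed for 48-72 h at 37 °C, 5% CO2. Media and cells were harvested separately, with PI-PLC treatment used to release GPI-anchored protein. Non-reduced samples were blotted with rabbit anti-PH20 (0.5 μg/mL), and a band near 66 kDa was scored as PH20.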

[1] = Microtiter hyaluronidase activity assay with biotinylated-hyaluronic acid; format: biochemical; details: 72 hour post transfection supernatant

Row | Molecule | Expressed in Media (CHO-S cells) | pH 5.5 Activity ([1]; Table 6) [Units/ml] | pH 7.4 Activity ([1]; Table 6) [Units/ml] | pH 5.5 Activity ([1]; Table 6A) [Units/ml] | pH 7.4 Activity ([1]; Table 6A) [Units/ml]
1 | B1 | YES | 0.0675 | 0 |  | 
2 | B2 | YES | 0.054 | 0 |  | 
3 | B3 | YES | 0.0225 | 0.054 |  | 
4 | B4 | YES | 0.0405 | 0.063 |  | 
5 | B5 | YES | 0.9225 | 1.017 | 1.580 | 1.134
6 | B6 | YES | 1.748 | 1.8765 |  | 
